Test results as given in publication PMC10705891.

B1: H2 RNA aptamer (structured_RNA)
RNA: GCCACCAACGACAUUACGCAUUGCUUCUAAAGGGUGUGCCGUUGAUAUAAAUAGUGCCCAU
B2: H1 RNA aptamer (structured_RNA)
RNA: GCCACCAACGACAUUUUGUCAAUCUGUAGAAAAAAUCAGGGUUGAUAUAAAUAGUGCCCAU

Target: HopU1 (Pseudomonas syringae, UniProt Q88A91 1-264)
Test: MST
Conditions: protein: recombinant; tags: C-terminal His6 (pET22b NdeI/XhoI, Ni-NTA; tag position implied by vector)

Row | Binder | Kd
1 | B1 | 6.41 ± 0.48 nM
2 | B2 | 6.71 ± 0.69 nM
